In article PMC8113479, “Following replicative DNA synthesis by time-resolved X-ray crystallography”:

What was measured:
[1] = biological target: T1, Bst DNA polymerase I large fragment (Geobacillus stearothermophilus, UniProt E1C9K5 3-580); assay: X-ray crystallography; 0 min, before dATP soak; Co-crystals; P/T duplex annealed in Bst buffer (50 mM Tris-Cl pH 7.5, 150 mM NaCl, 1 mM EDTA, 10 mM BME) with 20 mM MgCl2; crystallization and soak conditions not in the material; details: protein: recombinant; tags: tagless; template 5' overhang 5 nt (GACGT) and 3' overhang 1 nt (A); 10 bp
[2] = biological target: T1, Bst DNA polymerase I large fragment; assay: X-ray crystallography; dATP and dCTP soak, 48 h, product binary complex; Co-crystals; P/T duplex annealed in Bst buffer (50 mM Tris-Cl pH 7.5, 150 mM NaCl, 1 mM EDTA, 10 mM BME) with 20 mM MgCl2; crystallization and soak conditions not in the material; details: protein: recombinant; tags: tagless; template 5' overhang 3 nt and 3' overhang 1 nt; 12 bp
[3] = biological target: T1, Bst DNA polymerase I large fragment; assay: X-ray crystallography; dATP soak, 120 min, product complex; Co-crystals; P/T duplex annealed in Bst buffer (50 mM Tris-Cl pH 7.5, 150 mM NaCl, 1 mM EDTA, 10 mM BME) with 20 mM MgCl2; crystallization and soak conditions not in the material; details: protein: recombinant; tags: tagless; template 5' overhang 4 nt and 3' overhang 1 nt; 11 bp

B1: P/T duplex (starting primer-template) (dsDNA)
DNA 1: GCGATCACGT
DNA 2: GACGTACGTGATCGCA
- binding result [1]: binds

B2: P+2/T duplex (primer extended by dA and dC in crystallo) (dsDNA)
DNA 1: GCGATCACGTAC
DNA 2: GACGTACGTGATCGCA
- binding result [2]: binds

B3: P+1/T duplex (primer extended by dA in crystallo) (dsDNA)
DNA 1: GCGATCACGTA
DNA 2: GACGTACGTGATCGCA
- binding result [3]: binds
